Experimental findings from US20180049457A1, “ENZYMATIC SYNTHESIS OF SOLUBLE GLUCAN FIBER” (E I DU PONT DE NEMOURS AND COMPANY, priority 2014, published 2018) are described below.

This assay is described as follows: GTF activity of strains (PAHBAH assay). Particulars: enzyme expressed in B. subtilis host. The class given is biochemical. The method, then:
GTF activity of the strains was analyzed by PAHBAH assay in three separate experiments. Due to minor variations between the expeirments, Table 2 lists the activity of the truncated enzymes in the B. subtilis host along with the experiment in which the activity was measured. Most of the T1, T2, and T6 truncations decreased the activity of the enzymes, whereas the T4 and T5 C-terminal truncations retained similar activity relative to the respective N terminal-only truncations (NT). […] To identify specific amino acid residues within the catalytic domain that may be involved in producing the soluble α-glucan fiber, we analyzed the crystal structures (PDB Identifiers: 3AIB, 3AIC, and 3HZ3) of the catalytic domains of three glucosyltransferases to identify residues within 8 Angstroms of the bound ligand. 57 residues met that criterion. A motif was generated based on the corresponding 57 amino acids in GTF0459 and each of the identified homologs. The motif was then used to generate a consensus sequence to capture the variability in the catalytic domains of GTF0459 and the identified homologs. The consensus sequence is provided as SEQ ID NO: 153.

B1: GTF3808NT: N terminal-only truncated GTF3808 from Streptococcus sp. SR4, SEQ ID NO: 108, strain SG1313 (protein)
chain: INGKQYYVNSDGSVRKNFVFEQDGKSYYFDAETGALATKSQDEFSTEPIKATVDFSSGNQLYKNDDKSLDQLDTFITADAWYRPKSILKDGKTWTASTEADKRPLLMVWWPDKSTQVNYLNYMQNQGLGAGSFSTNSSQESLDQAAKMVQTKIEERIAREGNTNWLRTSIDQFIKTQPGWNSSTENSSYDHLQGGQLLFNNSKGDTGNRTSHANSDYRLLNRTPTNQTGTRKYFKDNSIGGLEFLLANDIDNSNPAVQAEQLNWLHFMMNIGSIMANDPTANFDGLRVDALDNVDADLLQIASDYFKAAYGVDKSEANAIKHLSYLEAWSANDPYYNKDTKGAQLPIDNALRNALTNLLMRDKNTRMQLGDMTAFINSSLNPRGANDKNGERMANYIFTRAHDTEAQTIIQRIIRDRINPNLFGYNFTRDEIKKAFEIYNEDIDKAHKTYASYNLPSVYALMLTNKDSVTRVYYGDLYREDGHYMAKKTPYFDAIDTLLRARIKYVAGGQDMEVKKVGNDGLLTSVRYGKGANNRTDLGTSETRTQGMGVIMTNNYDFRLGSNETVTMNMGRAHRNQLYRPLLLTTKDGIATYLNDSDVPKNLLKRTDWNGNLTFNANDVFGVENVQVSGYLGVWVPYGAKANQDARTQPSNRANSDGQVYKSSAALDSQVMYEAFSNFQAFADDQPELYMNRVLAKNTDLLKAWGITSVGLPPQYVSSKDGTFLDSTIDNGYAFDDRYDMALSQNNKYGSLEDLLNVLRALHKDGIQAIADWVPDQIYNLPGKEVVNATRVNGYGNHQVGYQIIDQAYVANTRTDGTDYQGKYGGAFLDELKAKYPSIFNRVQISNGKQLPTNEKITKWSAKYFNGTNILGRGINYVLRDDKTNQYFNTSANSQLLPTPLRDTGAITSTQVFQRRGQDVYFLRDNQAVKNEFVQDGNGNWYYFGGDGKMTKGAQNINNKDYYFFDNGIQLRNALRRASNGYTYYYGLDGAMVKNAFVDFDDKHKQVRAFTTQGTMVVGNLHWSGHHFYFDRETGIQAKDRVVRTDDGKLHYYVAETGDMGRNVFATDSSTGKRYYFDADGNTVTGSRVIDGKTYYFNQDGSVGTAYSNRADSIIFENGKARYITPAGEIGRSIFVYNPATKAWNYFDKEGNRVTGRQYIDGHLYYFKEDGSQAKGEIIEENGIKYYYEPESGILASGRYLQVGDDQWMYFKQDGSLAIGQVRADHGYLKYFDKNGIQVKGKTVVEDGKTYYYDAHSGALVTSSFAEIAPNQWSYFNTDGQALKGKWTINGKEYYFDENGIQYKGKAIKVGSRYKYYDENDGQPVTNRFAQIEPNVWAYFGADGYAVTGEQVINGQHLYFDQSGRQVKGAYVTVNGQRRYYDANTGEYVPGR
modifications: Streptococcus sp. SR4
For B1, the “GTF activity of strains: Acitivity” value (Experiment Number 3) worked out at 34.9 U/mL.

B2: GTF3808T5: T5 C-terminal truncation of GTF3808, SEQ ID NO: 124, strain SG1330 (protein)
chain: INGKQYYVNSDGSVRKNFVFEQDGKSYYFDAETGALATKSQDEFSTEPIKATVDFSSGNQLYKNDDKSLDQLDTFITADAWYRPKSILKDGKTWTASTEADKRPLLMVWWPDKSTQVNYLNYMQNQGLGAGSFSTNSSQESLDQAAKMVQTKIEERIAREGNTNWLRTSIDQFIKTQPGWNSSTENSSYDHLQGGQLLFNNSKGDTGNRTSHANSDYRLLNRTPTNQTGTRKYFKDNSIGGLEFLLANDIDNSNPAVQAEQLNWLHFMMNIGSIMANDPTANFDGLRVDALDNVDADLLQIASDYFKAAYGVDKSEANAIKHLSYLEAWSANDPYYNKDTKGAQLPIDNALRNALTNLLMRDKNTRMQLGDMTAFINSSLNPRGANDKNGERMANYIFTRAHDTEAQTIIQRIIRDRINPNLFGYNFTRDEIKKAFEIYNEDIDKAHKTYASYNLPSVYALMLTNKDSVTRVYYGDLYREDGHYMAKKTPYFDAIDTLLRARIKYVAGGQDMEVKKVGNDGLLTSVRYGKGANNRTDLGTSETRTQGMGVIMTNNYDFRLGSNETVTMNMGRAHRNQLYRPLLLTTKDGIATYLNDSDVPKNLLKRTDWNGNLTFNANDVFGVENVQVSGYLGVWVPYGAKANQDARTQPSNRANSDGQVYKSSAALDSQVMYEAFSNFQAFADDQPELYMNRVLAKNTDLLKAWGITSVGLPPQYVSSKDGTFLDSTIDNGYAFDDRYDMALSQNNKYGSLEDLLNVLRALHKDGIQAIADWVPDQIYNLPGKEVVNATRVNGYGNHQVGYQIIDQAYVANTRTDGTDYQGKYGGAFLDELKAKYPSIFNRVQISNGKQLPTNEKITKWSAKYFNGTNILGRGINYVLRDDKTNQYFNTSANSQLLPTPLRDTGAITSTQVFQRRGQDVYFLRDNQAVKNEFVQDGNGNWYYFGGDGKMTKGAQNINNKDYYFFDNGIQLRNALRRASNGYTYYYGLDGAMVKNAFVDFDDKHKQ
modifications: T5 C-terminal truncation of GTF3808
For B2, the “GTF activity of strains: Acitivity” value (Experiment Number 3) is on record as 36.2 U/mL.

B3: GTF0459NTnativeT5: T5 C-terminal truncation of GTF0459, SEQ ID NO: 126, strain SG1297 (protein)
chain: INGKQYYVNSDGSVRKNFVFEQDGKSYYFDAETGALATKSQDEFSTEPIKAAVDFSSGNQLYKNDNKSLDQLDTFITADAWYRPKSILKDGKTWTASTEADKRPLLMVWWPDKSTQVNYLNYMQNQGLGAGSFSTNSSQESLNLAAKAVQTKIEERIAREGNTNWLRTSIDQFIKTQPGWNSSTENSSYDHLQGGQLLFNNSKGDTGNRTSYANSDYRLLNRTPTNQSGTRKYFKDNSIGGLEFLLANDIDNSNPAVQAEQLNWLHFMMNIGSIMANDPTANFDGLRVDALDNVDADLLQIASDYFKAVYGVDKSEANAIKHLSYLEAWSANDPYYNKDTKGAQLPIDNALRNALTNLLMRDKNTRMQLGDMTAFMNSSLNPRGANDKNGERMANYIFTRAHDTEAQTIIQRIIRDRINPNLFGYNFTRDEIKKAFEIYNADINTAHKTYASYNLPSVYALMLTNKDSVTRVYYGDLYREDGHYMAKKTPYFDAIDTLLRARIKYVAGGQDMEVKKVGNDGLLTSVRYGKGANNSTDWGTTETRTQGMGVILTNNYDFRLGSNETVTMNMGRAHRNQLYRPLLLTTKDGLATYLNDSDVPSNLLKRTDWNGNLTFNANDVFGVENVQVSGYLGVWVPVGAKANQDARTQPSNRANSDGQVYKSSAALDSQVMYEAFSNFQAFADDQPELYMNRVLAKNTDLLKAWGVTSVGLPPQYVSSKDGTFLDSTIDNGYAFDDRYDMALSQNNKYGSLEDLLNVLRALHKDGIQAIADWVPDQIYNLPGKEVVNATRVNGYGYHQQGYQIVDQAYVANTRTDGTDYQGRYGGAFLDELKAKYPSIFNRVQISNGKQLPTNEKITKWSAKYFNGTNILGRGINYVLRDDKTNQYFNTSANGQLLPTPLRDTGAITSTQVFQRRGQDVYFLRDNQVIKNEFVQDGNGNWYYFGADGKMTKGAQNINSKDYYFFDNGVQLRNALRRASNGYTYYYGLDGAMIKNAFVDFDDKHQ
modifications: T5 C-terminal truncation of GTF0459
For B3, the “GTF activity of strains: Acitivity” value (Experiment Number 2) is recorded as 52 U/mL.

B4: GTF0459NTnativeT6: T6 C-terminal truncation of GTF0459, SEQ ID NO: 134, strain SG1298 (protein)
chain: INGKQYYVNSDGSVRKNFVFEQDGKSYYFDAETGALATKSQDEFSTEPIKAAVDFSSGNQLYKNDNKSLDQLDTFITADAWYRPKSILKDGKTWTASTEADKRPLLMVWWPDKSTQVNYLNYMQNQGLGAGSFSTNSSQESLNLAAKAVQTKIEERIAREGNTNWLRTSIDQFIKTQPGWNSSTENSSYDHLQGGQLLFNNSKGDTGNRTSYANSDYRLLNRTPTNQSGTRKYFKDNSIGGLEFLLANDIDNSNPAVQAEQLNWLHFMMNIGSIMANDPTANFDGLRVDALDNVDADLLQIASDYFKAVYGVDKSEANAIKHLSYLEAWSANDPYYNKDTKGAQLPIDNALRNALTNLLMRDKNTRMQLGDMTAFMNSSLNPRGANDKNGERMANYIFTRAHDTEAQTIIQRIIRDRINPNLFGYNFTRDEIKKAFEIYNADINTAHKTYASYNLPSVYALMLTNKDSVTRVYYGDLYREDGHYMAKKTPYFDAIDTLLRARIKYVAGGQDMEVKKVGNDGLLTSVRYGKGANNSTDWGTTETRTQGMGVILTNNYDFRLGSNETVTMNMGRAHRNQLYRPLLLTTKDGLATYLNDSDVPSNLLKRTDWNGNLTFNANDVFGVENVQVSGYLGVWVPVGAKANQDARTQPSNRANSDGQVYKSSAALDSQVMYEAFSNFQAFADDQPELYMNRVLAKNTDLLKAWGVTSVGLPPQYVSSKDGTFLDSTIDNGYAFDDRYDMALSQNNKYGSLEDLLNVLRALHKDGIQAIADWVPDQIYNLPGKEVVNATRVNGYGYHQQGYQIVDQAYVANTRTDGTDYQGRYGGAFLDELKAKYPSIFNRVQISNGKQLPTNEKITKWSAKYFNGTNILGRGINYVLRDDKTNQYFNTSANGQLLPTPLRDTGAITSTQVFQRRGQDVYFLRDNQVIKNEFVQDGNGNWYYFGADGKMTKGAQNINSKDYYFFDNGVQLRNALRRASNGYTYYYGLDGAMIKNAFVDFDDKHQQVRAFTTQ
modifications: T6 C-terminal truncation of GTF0459
Take B4: the “GTF activity of strains: Acitivity” value (Experiment Number 1) is 28.5 U/mL.
